This assay addresses murine dimeric IgA (mouse) (UniProt P01592). Briefly: cell-based or functional assay.
Chain of UniProt P01592 (P01592 22-159): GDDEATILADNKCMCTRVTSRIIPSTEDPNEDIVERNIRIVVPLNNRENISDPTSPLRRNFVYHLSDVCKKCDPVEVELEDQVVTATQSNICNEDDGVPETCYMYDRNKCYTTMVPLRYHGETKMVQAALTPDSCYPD

The substance “murine polymeric immunoglobulin receptor (from UniProt O70570 19-771)” had a total IgA concentration in milk by ELISA, transgenic line 3644 (270-fold increased SC); control mean 292 mg/ml of 593 and a total IgA level in milk by ELISA, transgenic line 3646 (60-fold elevated SC) against control mice of 1.5 times.

Values taken from US6924412.
